Data as given in patent US20260209362A1 (VIB VZW, published 2026).

T1: human IL-12Rβ2 expressed on cells (human, UniProt Q99665 24-862)
T1 construct: HEK293T cells transiently transfected with a human IL-12Rβ2 plasmid (Genscript OHu21785); also called hIL-12RB2
T1 sequence: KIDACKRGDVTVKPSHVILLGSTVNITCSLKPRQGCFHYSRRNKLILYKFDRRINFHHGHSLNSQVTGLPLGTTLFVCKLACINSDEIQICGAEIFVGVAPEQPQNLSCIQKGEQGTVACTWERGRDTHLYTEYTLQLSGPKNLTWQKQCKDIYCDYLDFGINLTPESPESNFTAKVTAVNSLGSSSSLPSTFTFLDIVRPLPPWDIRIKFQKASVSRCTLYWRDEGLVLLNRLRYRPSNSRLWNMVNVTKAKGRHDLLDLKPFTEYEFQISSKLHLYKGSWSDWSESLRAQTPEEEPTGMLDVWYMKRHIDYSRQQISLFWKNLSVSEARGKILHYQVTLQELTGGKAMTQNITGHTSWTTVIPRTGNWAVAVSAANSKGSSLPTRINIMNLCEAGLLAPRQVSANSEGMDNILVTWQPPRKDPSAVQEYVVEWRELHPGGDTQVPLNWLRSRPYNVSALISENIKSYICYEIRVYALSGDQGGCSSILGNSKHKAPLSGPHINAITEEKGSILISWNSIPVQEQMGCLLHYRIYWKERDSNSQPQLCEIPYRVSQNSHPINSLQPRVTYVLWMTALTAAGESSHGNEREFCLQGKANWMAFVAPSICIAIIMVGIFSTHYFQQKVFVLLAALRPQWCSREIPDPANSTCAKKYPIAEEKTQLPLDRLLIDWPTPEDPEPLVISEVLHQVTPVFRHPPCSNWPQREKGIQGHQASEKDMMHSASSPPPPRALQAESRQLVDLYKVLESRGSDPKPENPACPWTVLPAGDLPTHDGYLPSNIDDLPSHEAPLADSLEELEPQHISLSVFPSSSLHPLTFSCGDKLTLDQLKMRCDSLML

T2: mouse IL-12Rβ2 expressed on cells (mouse, UniProt P97378 24-874)
T2 construct: HEK293T cells, stably transduced (cDNA NM_008354); also called mIL-12RB2
T2 sequence: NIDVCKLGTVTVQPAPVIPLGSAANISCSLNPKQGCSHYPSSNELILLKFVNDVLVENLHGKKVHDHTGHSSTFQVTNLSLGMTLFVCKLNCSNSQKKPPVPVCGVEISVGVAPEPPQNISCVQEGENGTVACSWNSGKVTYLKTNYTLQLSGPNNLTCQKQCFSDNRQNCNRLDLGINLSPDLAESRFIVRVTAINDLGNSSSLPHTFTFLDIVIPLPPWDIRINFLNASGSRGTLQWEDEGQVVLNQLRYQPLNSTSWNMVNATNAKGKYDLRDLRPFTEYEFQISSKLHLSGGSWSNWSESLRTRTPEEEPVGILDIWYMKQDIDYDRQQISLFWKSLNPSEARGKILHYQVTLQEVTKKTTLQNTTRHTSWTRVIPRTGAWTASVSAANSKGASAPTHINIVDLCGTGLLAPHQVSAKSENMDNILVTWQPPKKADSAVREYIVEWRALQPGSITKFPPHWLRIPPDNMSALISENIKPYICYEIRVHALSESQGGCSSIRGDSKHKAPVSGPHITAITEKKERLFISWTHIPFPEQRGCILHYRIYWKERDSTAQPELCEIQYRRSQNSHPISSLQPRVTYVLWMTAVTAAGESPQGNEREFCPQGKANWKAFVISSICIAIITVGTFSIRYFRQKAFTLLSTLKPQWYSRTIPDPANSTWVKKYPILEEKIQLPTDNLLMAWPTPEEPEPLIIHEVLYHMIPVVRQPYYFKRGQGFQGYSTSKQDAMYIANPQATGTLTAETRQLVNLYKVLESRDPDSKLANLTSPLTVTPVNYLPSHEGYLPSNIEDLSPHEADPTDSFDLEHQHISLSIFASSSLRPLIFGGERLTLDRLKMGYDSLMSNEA


Tests used:
[1] = target: T1, human IL-12Rβ2 expressed on cells; assay: flow cytometry, P.E. VHH on HEK293T cells transiently expressing hIL-12RB2
[2] = target: T2, mouse IL-12Rβ2 expressed on cells; assay: flow cytometry, P.E. VHH on HEK293T cells transiently expressing mIL-12RB2

dMFI [1]	% cells bound [2] [%]	dMFI [2]	Binder
684	7.53	194	anti-IL-12Rβ2 VHH clone 3CAHM11 (VHH, not shown: small tags and cut ends, tested as periplasmic extract) VHH: QVQLQESGGGLVQAGGSLRLSCAASGRTFNNYAMAWFRQAPGKEREFIAAITRSDTTLYIDSVKGRFTISRDNAKNTVALQMNSLKPEDTAVYYCAAGMPYSYSDYPRDSKYDYWGRGTQVTVSS
589	18.6	312	anti-IL-12Rβ2 VHH clone 3CRHM14 (VHH, not shown: small tags and cut ends, tested as periplasmic extract) VHH: QVQLQESGGGLVQAGGSLRLSCAASGRTFSNYAMAWFRQAPGTEREFVAGLSGSGGDTEFYDDSVKGRFAISRDSAKNTVWLQMNSLKPEDTAVYYCAAATHVVVHYGLVRRRGTYDYWGQGTQVTVSS
297	10.4	257	anti-IL-12Rβ2 VHH clone 3CRHM73 (VHH, not shown: small tags and cut ends, tested as periplasmic extract; also called 21060) VHH: QVQLQESGGGLVQAGGSLSLSCAASGSAFRLNFMGWYRQAPGKQRELVAAINSGGTEIYHDSVKGRFTISRDNADSTVWLQMNSLKPDDTAVYYCAADRGISWSKLAGGMDYWGKGTQVTVSS
458	10.7	251	anti-IL-12Rβ2 VHH clone 3CRHM99 (VHH, not shown: small tags and cut ends, tested as periplasmic extract; also called 21062) VHH: QVQLQESGGGLVQPGGSLRLSCAASGISSSRLHVGWFRQSPGKEREFVAAISLSGGTQAYTDSVKGRFTISGDNVKNTAYLQMNSLRPEDTAVYYCAARERFIWTWSDLTYDYWGQGTQVTVSS
